Experimental data reported in PMC7020209 (Plants, 2020).
Read-outs that look alike come from different tables or passages of the source.

Experiments:
Conditions in all cases: co-substrate O2, 30 °C
N3-GOX = test: O2 consumption, Hansatech oxygen electrode, nonlinear Michaelis-Menten fit; type: biochemical, synthetic construct
Text: O2 consumption, Hansatech oxygen electrode, nonlinear Michaelis-Menten fit on N3-GOX

purified protein [1] = substrate: C[C@H](O)C(=O)O; test: purified protein
purified protein [2] = substrate: O=C(O)CO; test: purified protein

| Km (N3-GOX; read-out: L-Lactate / Km) [mM] | Km (N3-GOX; read-out: Glycolate / Km) [mM] | Molecule | Km (purified protein [1]) [mM] | Vmax (purified protein [1]) [µmol/min/mg] | Km (purified protein [2]) [mM] | Vmax (purified protein [2]) [µmol/min/mg] |
| --- | --- | --- | --- | --- | --- | --- |
| 13.7 ± 1.93 |  | C[C@H](O)C(=O)O [L-lactate] |  |  |  |  |
|  | 11.8 ± 0.61 | O=C(O)CO [glycolate] |  |  |  |  |

Second part, the molecule before the results:

| Molecule | Km (N3-GOX; read-out: L-Lactate / Km) [mM] | Km (N3-GOX; read-out: Glycolate / Km) [mM] | Km (purified protein [1]) [mM] | Vmax (purified protein [1]) [µmol/min/mg] | Km (purified protein [2]) [mM] | Vmax (purified protein [2]) [µmol/min/mg] |
| --- | --- | --- | --- | --- | --- | --- |
| Sp-GOX (Spirogyra pratensis) (protein) MSSEVVNVTEFQAIAKQKLPKQTYDYYASGAEDEWSLRENRNAFERITFRPRILIDVSKIDLTTSVLGYRLSMPIMVAPTAMQKMAHPDGELATARAATSMNTAMTLSSWATSSVEEVSSTGPGLRFFQLYVYKNRDVVLQLVRRAEKAGFKAIALTVDTPRLGRREADIRNKFVLPPGLTLKNFEGLDLGKMDQTEDSGLASYVAGQIDRSLSWKDVKWLQSVTSMPILVKGVITGEDAKIAVECGASGIIVSNHGARQLDYVSSTINALEEVVKATAGRIPVFLDGGVRRGTDVLKALALGAKGVFVGRPVVFALASDGEAGVKKCLQMLRDEFELAMALAGCTKISDINRSLVQTEGDRIRMAARL |  |  | 15.52 ± 4.55 | 24.2 | 0.94 ± 0.12 | 28.1 |
| Cp-GOXc (Cyanophora paradoxa) (protein) MQPLSAQALAQYRAAAPMDPVNVMEYQMVAKEKLPKMVYDYYASGADDQWTLQEARSAFERITFRPRVLVDVSVQDMSTTILGQKVAFPICVAPTAMQCMATGQGEKATSRAVASMNTLMTLSSWSTTPLEEVAKAAPHGARWFQLYVYKDRACTERLVRRAQAAGYKALCLTVDTPRLGRRENDVKNRFHLPDGLTMGNFLDLVQAEMPTDQKDSGLAAYVASLIDPTLNWKDVEWLKTITNLPIVVKGVLTAEDALMAVKHGCAGIVVSNHGARQLDYSPATIDVLEEVVNAVRGYPIEVYLDGGVRRGTDALKALALGARAVFVGRPVVWGLAAGGEEGVRKVLTMLRDEFKLGLALLGCQSLKDINRSMVVTPADRAKTAVRARL |  |  | 9.27 ± 1.44 | 6.94 | 0.38 ± 0.05 | 8.98 |
